B1: Hairpin Ribozyme (parent)
chain: GUCCUCUUUCACGUGCGCGUGAAAGAGAGAAGUGAACCAGAGAAACACACGUUGUGGUAUAUUACCUGGUA

Variants of: B1
Assay: self-cleavage, relative activity (ratio to wild type); higher = more cleavage; co-transcriptional
With C3U U70G the self-cleavage was 0.371. C4U G19U gave a self-cleavage of 0.312. For C4A A24U, the self-cleavage was 0.196. C3G U8A gave a self-cleavage of 0.377. For C3U U14G, the self-cleavage was 0.442. For C3U C46G, the self-cleavage was 0.179. C3U C46A gave a self-cleavage of 0.121. With C4U C48U the self-cleavage was 0.142. With C4A A47C the self-cleavage was 0.205. In the case of C4A A47G, the self-cleavage is reported as 0.188. C4G G57A gave a self-cleavage of 0.103. C4G A44G gave a self-cleavage of 0.0493. Work on C4G A44U yielded a self-cleavage of 0.164. C3U G57U showed a self-cleavage of 0.204. Variant C3U G57A has a self-cleavage of 0.0631. With C3U G25C the self-cleavage was 0.0917. C3U A24C showed a self-cleavage of 0.477. C4G A41G gave a self-cleavage of 0.219. With C4U U20A the self-cleavage was 0.281. C4U U20C showed a self-cleavage of 0.24. C3U G51U showed a self-cleavage of 0.538. With C3U G51C the self-cleavage was 0.402. Variant C4A U8A has a self-cleavage of 0.16. C4A U8C gave a self-cleavage of 0.113. In the case of C3G G17A, the self-cleavage is reported as 0.388. C4A A43U gave a self-cleavage of 0.184. Variant C3G U20G has a self-cleavage of 0.28. For C3U U20G, the self-cleavage was 0.561. Work on C4A C16A yielded a self-cleavage of 0.202. C4G G25A showed a self-cleavage of 0.156. Variant C4G G15A has a self-cleavage of 0.216. C4G G15C gave a self-cleavage of 0.212. Variant C3U G68U has a self-cleavage of 0.19. For C4G G29U, the self-cleavage was 0.13. With C4A G56C the self-cleavage was 0.157. Work on C4G G54A yielded a self-cleavage of 0.144. C4G G54C gave a self-cleavage of 0.139. With C4G G27A the self-cleavage was 0.325. With C3U C65U the self-cleavage was 0.334. In the case of C3U C65A, the self-cleavage is reported as 0.611. C4U C38U showed a self-cleavage of 0.234. Variant C4U A35C has a self-cleavage of 0.418. In the case of C4G A26U, the self-cleavage is reported as 0.204. With C4U A61U the self-cleavage was 0.0691. Variant C4U A61C has a self-cleavage of 0.294. C4U A61G gave a self-cleavage of 0.169. C4U G42C gave a self-cleavage of 0.253. Variant C4U G13A has a self-cleavage of 0.238. C4U A71U gave a self-cleavage of 0.282. With C3U U55A the self-cleavage was 0.0909. Variant C3U U55G has a self-cleavage of 0.208. Work on C4U A28C yielded a self-cleavage of 0.273. Variant C4G A64U has a self-cleavage of 0.142. C4G A64G showed a self-cleavage of 0.124. C4U G34A gave a self-cleavage of 0.688. C4A C48A showed a self-cleavage of 0.131. Variant C4G C10U has a self-cleavage of 0.198. Work on C3U A11U yielded a self-cleavage of 0.32. C4U U14C showed a self-cleavage of 0.184. In the case of C4U U14A, the self-cleavage is reported as 0.376. In the case of C4U U14G, the self-cleavage is reported as 0.418. With U5A A39C the self-cleavage was 0.139. C4G G69U showed a self-cleavage of 0.118. Variant C4G G69A has a self-cleavage of 0.132. For C4U C18G, the self-cleavage was 0.349. Work on C4U C18U yielded a self-cleavage of 0.514. C3U A36G gave a self-cleavage of 0.505. In the case of C3U U53A, the self-cleavage is reported as 0.495. C4G C48U showed a self-cleavage of 0.146. In the case of C3G U7C, the self-cleavage is reported as 0.372. With C3U A41U the self-cleavage was 0.917. Variant C3G G57C has a self-cleavage of 0.0572. C3G G57U gave a self-cleavage of 0.0635. In the case of C3G G57A, the self-cleavage is reported as 0.102. In the case of C4A A71U, the self-cleavage is reported as 0.138. With C4A U9C the self-cleavage was 0.163. Work on C4A U9G yielded a self-cleavage of 0.151. With C3G U33A the self-cleavage was 0.138. C4G A45C gave a self-cleavage of 0.0824. Variant C4G C66A has a self-cleavage of 0.277. Variant C4G C66U has a self-cleavage of 0.178. C3G G69A showed a self-cleavage of 0.108. Variant C3G U70C has a self-cleavage of 0.235. C4G G17C gave a self-cleavage of 0.121. For C4G G17U, the self-cleavage was 0.336. C3G C18A showed a self-cleavage of 0.34. Work on C4G U60C yielded a self-cleavage of 0.224. For C4A U53G, the self-cleavage was 0.27. C4U G40A showed a self-cleavage of 0.147. Work on C3G G15C yielded a self-cleavage of 0.493. Variant C3U A44U has a self-cleavage of 0.0496. Work on C3U G69U yielded a self-cleavage of 0.106. C3G G13C gave a self-cleavage of 0.321. Work on C3G G13A yielded a self-cleavage of 0.255. Variant C3G C38A has a self-cleavage of 0.119. In the case of C4G A28U, the self-cleavage is reported as 0.0783. Work on C4G A28G yielded a self-cleavage of 0.443. Work on C3G G29C yielded a self-cleavage of 0.0773. Work on C3G G29U yielded a self-cleavage of 0.0672. Variant C4U A44U has a self-cleavage of 0.162. C3U G54C showed a self-cleavage of 0.211. With C4A U58G the self-cleavage was 0.183. For C4A U58A, the self-cleavage was 0.113. Work on C4U C16A yielded a self-cleavage of 0.41. C4U U8A showed a self-cleavage of 0.2. For C3U C38U, the self-cleavage was 0.354. In the case of C4G A24G, the self-cleavage is reported as 0.256. C4G A24U showed a self-cleavage of 0.183. Work on C4G A24C yielded a self-cleavage of 0.177. Work on C4G C16G yielded a self-cleavage of 0.201. For C4U U7G, the self-cleavage was 0.235. Work on C3U U58G yielded a self-cleavage of 0.404. For C4A A11U, the self-cleavage was 0.258. C4A A11G gave a self-cleavage of 0.158. C4U A43U showed a self-cleavage of 0.202. C4A A23U gave a self-cleavage of 0.251. C3U G19U showed a self-cleavage of 0.502. Variant C3G C65G has a self-cleavage of 0.0169. C4A A45C gave a self-cleavage of 0.167. C4U C12A showed a self-cleavage of 0.333. For C3U, the self-cleavage was 0.526. C3G U9C gave a self-cleavage of 0.357. Variant C4G C46G has a self-cleavage of 0.122. Variant C4U U67C has a self-cleavage of 0.128. For C4U U67G, the self-cleavage was 0.143. With C4A C6A the self-cleavage was 0.166. For C4U G29A, the self-cleavage was 0.107. For C4U G29U, the self-cleavage was 0.194. Work on C4U A59U yielded a self-cleavage of 0.113. Work on C4U A59G yielded a self-cleavage of 0.163. In the case of C4A G69C, the self-cleavage is reported as 0.156. Variant C3U U63G has a self-cleavage of 0.12. C3U U63C showed a self-cleavage of 0.264. Variant C3U G27U has a self-cleavage of 0.15. C4G A47G showed a self-cleavage of 0.168. Work on C3U U62A yielded a self-cleavage of 0.158. Work on C3G G51A yielded a self-cleavage of 0.369. C3G G51C gave a self-cleavage of 0.238. C3U C48A gave a self-cleavage of 0.167. C3G U58A showed a self-cleavage of 0.0819. Work on C4G G42A yielded a self-cleavage of 0.194. C4G G42U gave a self-cleavage of 0.121. In the case of C3G G42C, the self-cleavage is reported as 0.103. C4U A49G gave a self-cleavage of 0.0694. C4U C65A gave a self-cleavage of 0.374. C4U C65G showed a self-cleavage of 0.0877. C3U U33C gave a self-cleavage of 0.167. Work on C3U U33G yielded a self-cleavage of 0.126. Work on C3U U33A yielded a self-cleavage of 0.147. With U5A A59G the self-cleavage was 0.213. U5A A45C showed a self-cleavage of 0.161. C4U U55G showed a self-cleavage of 0.157. Work on C4A U33A yielded a self-cleavage of 0.174. Variant C4A U33C has a self-cleavage of 0.132. C4G G32C gave a self-cleavage of 0.115. With C4G G32U the self-cleavage was 0.149. C4G A31U showed a self-cleavage of 0.183. For C4G A31C, the self-cleavage was 0.176. C4A G17U showed a self-cleavage of 0.148. For U5A A26U, the self-cleavage was 0.67. Variant C4A A30G has a self-cleavage of 0.105. In the case of C4A A30U, the self-cleavage is reported as 0.228. For C3U G29A, the self-cleavage was 0.173. Work on C4A G21A yielded a self-cleavage of 0.165. With C4G A36U the self-cleavage was 0.118. For C4G A36C, the self-cleavage was 0.103. C4A C12U gave a self-cleavage of 0.319.
